Measurements published in PMC5789848.

Assays:
[1] = target: GST-Tax_(CACA) (HTLV-1 Tax with C23 and C29 changed to alanine, N-terminal GST fusion) (HTLV-1) (UniProt P03409); experiment: BLI; BLItz; GST-Tax covalently bound to an AR2G sensor; UPF1 His-HD proteins in running buffer (300 mM NaCl, 20 mM phosphate, 0.02% Tween 20, 0.1% albumin); 250 s association, 60 s dissociation
[2] = tested on: T1, UPF1-HD (Homo sapiens), Q92900-2; experiment: BLI; details: BLI: 20 mM HEPES pH 7.5, 150 mM K acetate, 2 mM Mg acetate, 1 mM DTT, 6.3% glycerol, 0.1% NP-40; EMSA: 20 mM MES pH 6.0, 150 mM K acetate, 2 mM DTT, 0.2 ug/ul …
T1 sequence: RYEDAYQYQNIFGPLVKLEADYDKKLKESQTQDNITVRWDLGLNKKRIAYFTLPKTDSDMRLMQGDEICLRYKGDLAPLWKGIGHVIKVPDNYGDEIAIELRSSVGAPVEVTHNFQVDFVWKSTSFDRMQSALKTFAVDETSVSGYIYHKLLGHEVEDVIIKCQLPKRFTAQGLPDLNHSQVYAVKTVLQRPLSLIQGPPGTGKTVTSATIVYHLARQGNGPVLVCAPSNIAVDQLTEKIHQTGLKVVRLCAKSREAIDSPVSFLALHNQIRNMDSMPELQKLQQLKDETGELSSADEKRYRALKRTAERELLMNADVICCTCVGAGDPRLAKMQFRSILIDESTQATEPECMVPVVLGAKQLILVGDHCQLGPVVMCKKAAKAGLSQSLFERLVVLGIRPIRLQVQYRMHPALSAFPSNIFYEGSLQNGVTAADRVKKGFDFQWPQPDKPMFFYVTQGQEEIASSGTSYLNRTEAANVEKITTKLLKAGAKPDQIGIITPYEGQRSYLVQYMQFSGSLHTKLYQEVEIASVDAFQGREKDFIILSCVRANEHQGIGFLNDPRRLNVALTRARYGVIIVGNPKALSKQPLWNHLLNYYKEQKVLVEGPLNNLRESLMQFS

Substance | fold change of KD against WT [1] | Kd [2]
UPF1-HD_(R843C), histidine-tagged (from UniProt Q92900-2 295-914) (domain or fragment) | 3.2 times | –
5'-biotin 30-mer ssDNA (BLI) | – | 8.25 nM
